The values that follow come from patent US20180280504A1, “GLYCAN-INTERACTING COMPOUNDS AND METHODS OF USE” (SIAMAB THERAPEUTICS, INC., priority 2014, published 2018).

One assay is described as follows: Glycan array, AcSTn. In kind it is binding. The conditions noted are these: summary table. As to the method: (§1) Optimized glycan arrays comprise 71 chemically synthesized and well-defined glycans, most of which comprise Neu5Ac and Neu5Gc glycan pairs.
(§2) 300 ml of epoxy blocking buffer is prepared by combining 15 ml of 2 M Tris buffer (pH 8) with 0.9 ml of 16.6 M ethanolamine and 284.1 ml of distilled water. The solution was brought to a final pH of 9.0 with HCl. The solution is filtered using a […] nitrocellulose membrane. The epoxy buffer solution as well as 1 L of distilled water are pre-warmed to 50° C. Glass slides are arranged in a slide holder and quickly submerged in a staining tub with the warmed epoxy blocking buffer. Slides are incubated in the epoxy blocking buffer for 1 hour at 50° C. with periodic shaking to deactivate epoxy binding sites. Next, slides are rinsed and blocked with PBS with 1% OVA at 25° C. for one hour. Serum samples with polyclonal antibodies (1:1000) or purified monoclonal antibodies (1 ug/mL), are diluted in PBS with 1% OVA and added to the glycan array for one hour at 25° C. After extensive washing, binding of antibodies are detected by incubating glycan microarray slides with Cy3-conjugated anti-mouse IgG (Jackson Immunoresearch, West Grove, Pa.) for one hour. Slides are then washed extensively, dried and scanned with a Genepix 4000B scanner (Laser at 100%; gain at 350; 10 μm pixels). Raw data from scanned images are extracted using the Genepix software and analysis of raw data is carried out.

The nature of another assay: Glycan array, GcSTn. The assay is classed as binding. The note with it: summary table. As to the method:
as §1, §2

Assay [1] is described as follows: Glycan array STn specificity and anti-STn antibody group assignment. The conditions noted are these: summary table. The assay is classed as binding. As to the method:
as §2
Based on characterization data, anti-STn antibodies developed from Group 6 and Group 8 mice were categorized by anti-STn group number. In some cases, antibodies were assigned to Group 1. Group 1 antibodies according to the invention are antibodies capable of binding AcSTn and GcSTn. Such antibodies may have the ability to associate with a wider range of STn structures. The large oval in FIG. 1A indicates the portion of STn recognized by Group 1 antibodies. Antibodies were assigned to Group 2 based on their ability to bind STn as well as some related structures that include an O-linkage to serine or threonine. The large oval in FIG. 1B indicates the portion of STn recognized by Group 2 antibodies. In some cases, Group 2 antibodies may bind to glycans comprising a sialylated galactose residue. Some Group 2 antibodies preferably bind to structures with AcSTn over structures with GcSTn. Further anti-STn antibodies were assigned to Group 3. Group 3 antibodies are antibodies capable of binding STn, but may also bind a broader set of related structures. […] The large oval in FIG. 1C indicates the portion of STn recognized by Group 3 antibodies. Finally, some anti-STn antibodies were assigned to Group 4. Group 4 antibodies are capable of binding to both AcSTn and GcSTn as well as the un-sialylated Tn antigen, and therefore have broader specificity. The large oval in FIG. 1D indicates the portion of STn recognized by Group 4 antibodies. […] Also listed in the Table is the antibody Isotype for each antibody as determined by the IsoStrip mouse monoclonal antibody isotyping kit (Roche Diagnostics GmbH, Manheim, Germany).

Assay [2] relates to ST6GalNAc 1 transfected MDA-MB-231 cells (MDA-STn+). In words: Flow cytometry-based analysis of antibody binding, STn+ cells. Further details: species or system human. How it is done: Flow cytometry-based analysis is carried out to elucidate the curve-dose response for binding of antibodies to cell surface antigens. For these analyses, three cell lines are employed.
MDA-MB-231 cells are human breast cancer cells. They are grown in Earle's Minimum Essential Medium supplemented with 10% fetal calf serum (FCS), 100 μg/ml penicillin, 100 UI/ml streptomycin and 45 μg/ml gentamycin. MCF-7 cells are also human breast cancer cells and are grown under the same conditions as MDA-MB-231 cells. Stably transfected versions of MDA-MB-231 and MCF-7 cells (clone TAH3.P10 for MDA-MB-231 cells and clone A12.1 for MCF-7 cells) that over express GalNAc α2,6-sialyltransferase (ST6GalNAc 1,) are also cultured under the same conditions with the exception of an added 1 mg/ml of G418 to support cells expressing the transgene. ST6GalNAc 1 is an enzme capable of sialylating GalNAc. As a result of over expression, transfected cells express high levels of Neu5Ac-STn (see Julien, S. et al., Glycoconjugate journal. 2001. 18, 883-93; the contents of which are herein incorporated by reference in their entirety). E3 cells are murine breast cancer cells. They are cultured in Dulbecco's E4 medium with 10% FCS. Stably transfected versions of E3 cells expressing high levels of Neu5Gc-STn (E3-STn) are cultured with 600 μg/ml of G418 and 200 μg/ml hygromycin. During growth and maintenance of experimental cells, trypsin is not used for cell passaging.
For analysis, cells are harvested using StemPro Accutase (Life Technologies, Carlsbad, Calif.) and washed with PBS comprising 5% FBS before pelleting by light centrifugation. Cell numbers and viability are determined by trypan blue dye exclusion analysis and cell concentrations are adjusted to 5×10^6 cells/ml in PBS with 5% FBS. 50 μl of cells are added to each well of an assay plate. Cells are combined with 50 μl solutions of antibody being analyzed or control antibodies and incubated for 1 hour at 4° C. Cells are washed and pelleted twice with PBS with 5% FBS before being treated with 100 μl of PBS with 5% FBS comprising a 1:1,500 dilution of anti-mouse IgG (Southern Biotech, Birmingham, Ala.,) conjugated to allophycocyanin (APC). Cells are incubated for 30 min at 4° C. before washing and resuspending in 200 μl of propidium iodide (PI) diluted 1:1000 in PBS with 5% FBS. Treated cells are then subjects to flow cytometry analysis and 10,000 events are acquired for each sample.
A general note: A flow cytometer gives signals particle by particle.

The EC50 is the midpoint of the concentration-response curve.

Several values for one entry are separate records, joined by “and”; a condition that tells them apart may be missing. Equal entries are not always repeated.

B1: S3F: 3F1 variable domains combined with IgG2a constant domains; heavy chain SEQ ID NO: 63, light chain SEQ ID NO: 64 (antibody)
heavy: QVQLQQSDAELVKPGASVKISCKASGYTFTDHAIHWVKQKPEQGLDWIGYISPGNGDIKYNEKFKDKVTLTADKSSSTACMHLNSLTSEDSAVYFCKRSLLALDYWGQGTTLTVSSAKTTAPSVYPLAPVCGDTTGSSVTLGCLVKGYFPEPVTLTWNSGSLSSGVHTFPAVLQSDLYTLSSSVTVTSSTWPSQSITCNVAHPASSTKVDKKIEPRGPTIKPCPPCKCPAPNLLGGPSVFIFPPKIKDVLMISLSPIVTCVVVDVSEDDPDVQISWFVNNVEVHTAQTQTHREDYNSTLRVVSALPIQHQDWMSGKEFKCKVNNKDLPAPIERTISKPKGSVRAPQVYVLPPPEEEMTKKQVTLTCMVTDFMPEDIYVEWTNNGKTELNYKNTEPVLDSDGSYFMYSKLRVEKKNWVERNSYSCSVVHEGLHNHHTTKSFSRTPGK
light: DIVMTQSHKFMSTSVGDRVSITCKASQDVGTNIAWYQQKPGRSPKVLIYSASTRHTGVPDRFTGSGSGTDFTLTISNVQSEDLTDYFCQQYSSFPLTFGVGTKLELKRADAAPTVSIFPPSSEQLTSGGASVVCFLNNFYPKDINVKWKIDGSERQNGVLNSWTDQDSKDSTYSMSSTLTLTKDEYERHNSYTCEATHKTSTSPIVKSFNRNEC
Take B1: the “Glycan Array AcSTn” value in the assay “Glycan array, AcSTn” was 63%. Further, the “Glycan Array GcSTn” value in “Glycan array, GcSTn” is 31%. The “Glycan Array STn Specificity” value in assay [1] is listed as 94%. For the same molecule, in assay [2] (ST6GalNAc 1 transfected MDA-MB-231 cells, APC anti-mouse IgG), the “EC50, flow cytometry binding to cell-associated STn” value was 2.051 nM and 2.13 nM and 1.94 nM. Further, in assay [2] (summary table, unit not printed (same values in nM), read-out: Flow cytometry (EC50) MDA-STn+), the EC50 turned out to be 1.06 nM.
